Test results from patent US9526766B2, “Potentiation of antibiotic treatment with a protein-lipid complex” (priority 2012, dated 2016).
Entries after “also recorded” stand apart in the source; their conditions may differ.

Legend:
[1] = tested on: Streptococcus pneumoniae; experiment: MIC by broth microdilution, antibiotics with and without ALAFAC; format: cell-based
Experimental: Methodology: Minimal inhibitory concentrations (MICs) were determined in 96-well microtiter plates using the microdilution method according to approved standards of the CLSI except that Todd-Hewitt medium supplemented with 0.5% yeast extract, which yields reproducible MIC results was used as the test medium for S. pneumoniae. For the remaining species Mueller-Hinton medium was used as indicated by the CLSI standard. Each well contained two-fold dilutions of antibiotic, was seeded with a final bacterial concentration of 10^5 CFU/mL, and was incubated for 18 h at 37° C. in a Synergy II microplate reader (Biotek, Winooski, Vt.) where the OD600 was recorded every 5 minutes to monitor bacterial growth. The MIC was defined as the lowest concentration of antimicrobial agent solution at which no increase in OD600 was detected.
In vitro susceptibility tests. Minimal inhibitory concentrations (MICs) were determined in 96-well microtiter plates using the microdilution method according to approved standards of the CLSI except that Todd-Hewitt medium supplemented with 0.5% yeast extract, which yields reproducible MIC results was used as the test medium for S. pneumoniae. MICs for A. baumanni, and M. catarrhalis were determined in MH media. Two-fold dilutions of a starting antibiotic concentration was added in triplicate into microtiter plate wells (in 96-well plates), were seeded with a final bacterial concentration of ˜10^5 colony forming units (CFU)/mL, and was incubated for 18 h in ambient air at 37° C. in a Synergy II microplate reader (Biotek, Winooski, Vt.) where the OD600 was recorded every 5 minutes to monitor bacterial growth. The MIC was defined as the lowest concentration of antimicrobial agent solution at which no increase in OD600 was detected.

[2] = tested on: Staphylococcus aureus; experiment: as above; format: cell-based
Summary of the method: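 Broth microdilution per CLSI in tryptic soy broth, two-fold antibiotic dilutions in triplicate with or without ALAFAC, inoculum 10^5 CFU/mL. Incubated 24 h at 37 °C with OD600 read every 5 min; MIC is lowest concentration showing no OD600 increase.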

[3] = tested on: Streptococcus pneumoniae biofilms; experiment: Static biofilm model, viable counts; format: cell-based; conditions: alone or combined
Experimental: Methodology: Pneumococci were grown statically in CDM and S. aureus were grown in trypic soy medium to mid-logarithmic phase (OD600=0.5), washed, and resuspended in fresh pre-warmed medium to a density of 2×10^4 CFU in 500 μl volume, and suspensions were used to seed sterile round glass coverslips in the bottom of polystyrene 24-well plates with or without a substratum of confluent H292 epithelial cells. Biofilms were cultured at 34° C. in 5% CO2 for indicated times with change of culture media every 12 hours and to assess biomass and antibiotic resistance by viable counts (as described).
Biofilms were then washed in PBS and detached by scraping the surface in the presence of 100 μL PBS followed by a rinse with 100 μL PBS. Collected cells were sonicated in a sonication water bath for 2 s followed by vortexing twice for 20 seconds at high speed and the dispersed biofilm cells were used to determine viable CFUs per ml from diluted samples plated and grown on blood agar.
Static Biofilm Model. Pneumococci were grown in CDM to mid-logarithmic phase (OD600=0.5), washed, and resuspended in fresh pre-warmed medium to a density of 2×10^4 CFUs in 500 μl volume, and suspensions were used to seed sterile round glass coverslips in the bottom of polystyrene 24-well plates with a substratum of confluent H292 epithelial cells as described. Biofilms were cultured at 34° C. in 5% CO2 for indicated times with change of culture media every 12 hours and used for SEM studies or to assess biomass and antibiotic resistance by viable plate counts.
Biofilms were then washed in PBS, dispersed by sonication, and collected by pipetting in 100 μL PBS followed by a rinse with 100 μL PBS. Collected cells were then vortexed twice for 20 seconds at high speed and the dispersed biofilm cells were used to determine viable CFUs per ml from diluted samples plated and grown on blood agar. Results are reported as the total number of CFUs per biofilm.

[4] = tested on: S. pneumoniae nasopharyngeal colonization; experiment: Murine nasopharyngeal colonization model, intranasal treatment; format: in vivo, Streptococcus pneumoniae; conditions: ALAFAC 50 μg, alone or combined
Experimental: Methodology: Six-week-old female BALB/cByJ mice from Jackson Laboratories (Bar Harbor, Me., U.S.A.) were maintained in filter-top cages on standard laboratory chow and water ad libitum until use. Mice were colonized as described previously. In short, 20 μl of a bacterial suspension containing 5×10^6 CFUs of EF3030 pneumococci, 1×10^8 CFUs of SP670 pneumococci, or 5×10^7 NRS70 methicillin-resistant S. aureus in PBS were pipetted into the nares of non-anesthetized mice. […] Colonization burden was then assessed after euthanizing the animals by enumerating viable bacteria from harvested nasopharyngeal tissue after the nasal wash. Nasopharyngeal tissue was dissected out as described by removing the upper skull bone, and harvesting the tissue present in the nasal conchae with forceps. Bacterial load was measured by determining viable plate counts from the homogenized tissue.
Mice were colonized as described. In short, 20 μl of a bacterial suspension containing 5×10^6 CFUs of EF3030 pneumococci in PBS or 1×10^8 CFUs of SP670 pneumococci in PBS were pipetted into the nares of non-anesthetized mice. […] Colonization burden was then assessed after euthanizing the animals by enumerating viable bacteria both in a nasopharyngeal lavage obtained by injecting 100 μL PBS in the trachea of mice and collecting it as it flowed out the nares, and from harvested nasopharyngeal tissue after the nasal wash. Nasopharyngeal tissue was dissected out as described by removing the upper skull bone, and harvesting the tissue present in the nasal conchae with forceps. Bacterial load was measured by determining viable plate counts from the nasal lavage or from homogenized tissue.

B1: ALAFAC: non-covalent complex of alpha-lactalbumin and fatty acid (oleic acid); labeled HAMLET or HL in drawings and tables (protein, UniProt P00709 20-142, looked up)
Alpha-lactalbumin: KQFTKCELSQLLKDIDGYGGIALPELICTMFHTSGYDTQAIVENNESTEYGLFQISNKLWCKSSQVPQSRNICDISCDKFLDDDITDDIMCAKKILDIKGIDYWLAHKALCTEKLEQWLCEKL
modifications: complexed with oleic acid
MIC ([1]; S. pneumoniae D39, agent alone): 20 µg/mL | MIC ([1]; S. pneumoniae EF3030, agent alone): 20 µg/mL | MIC ([1]; S. pneumoniae JY53 (erythromycin-resistant), agent alone): 20 µg/mL | MIC ([1]; S. pneumoniae SP670 (penicillin-resistant), agent alone): 20 µg/mL | MIC ([1]; S. pneumoniae in liquid culture): ≈ 20 μg/ml | [HL] to sensitize ([2]; 10307570, sensitive to methicillin): 6 µM | [HL] to sensitize ([2]; 11090306, sensitive to methicillin): 0 µM | Additional ALAFAC required for equivalent adjuvant activity ([2]; Mueller Hinton broth versus TSB): approximately 20% | [HL] to sensitize ([2]; NRS1, sensitive to gentamicin): 48 µM | [HL] to sensitize ([2]; NRS1, sensitive to methicillin): 48 µM | [HL] to sensitize ([2]; NRS1, sensitive to vancomycin): 18 µM | [HL] to sensitize ([2]; NRS70, sensitive to methicillin): 3 µM | [HL] to sensitize ([2]; NRS71, sensitive to methicillin): 54 µM | [HL] to sensitize ([2]; NRS100, sensitive to methicillin): 18 µM | [HL] to sensitize ([2]; NRS123, sensitive to erythromycin): 0 µM | [HL] to sensitize ([2]; NRS123, sensitive to methicillin): 12 µM | [HL] to sensitize ([2]; NRS384, sensitive to erythromycin): 6 µM | [HL] to sensitize ([2]; NRS384, sensitive to gentamicin): 0 µM | [HL] to sensitize ([2]; NRS384, sensitive to methicillin): 6 µM | [HL] to sensitize ([2]; NRS384, sensitive to vancomycin): 0 µM | Concentration of ALAFAC alone without activity ([2]; any of the S. aureus strains tested): exceeding 5,000 μg/ml | ALAFAC concentration required to convert all antibiotic-resistant strains to sensitivity ([2]; methicillin, gentamicin, erythromycin and vancomycin): at most 54 μM | Biofilm killing ([3]; D39 48 h biofilm (8.3 log10) on epithelial substratum, 250 μg/ml ALAFAC, 100 μg/ml penicillin): not bactericidal | Biofilm killing ([3]; EF3030 48 h biofilm (7.5 log), 100 μg/mL ALAFAC, 200 μg/ml gentamicin, 3 hours): no bactericidal activity | Biofilm killing ([3]; SP670 biofilm, ALAFAC 250 μg/mL, penicillin 100 μg/mL): almost complete resistance | Bacterial burden, nasopharyngeal tissue and nasal lavage ([4]; mice colonized with EF3030 for 48 hours, single intranasal dose, gentamicin, 6 hours): no decrease in bacterial burden | Colonization level / bacterial burden ([4]; mice colonized with SP670 for 48 hours, penicillin up to 100 μg (5,000 μg/ml) intranasally, 12 hours): no effect; also recorded: no decrease in the pneumococcal burden
